{"source": "patent US20050113304", "proteins": {"B1": {"name": "Botulinum toxin B (protein)", "chain 1": "PVTINNFNYNDPIDNNNIIMMEPPFARGTGRYYKAFKITDRIWIIPERYTFGYKPEDFNKSSGIFNRDVCEYYDPDYLNTNDKKNIFLQTMIKLFNRIKSKPLGEKLLEMIINGIPYLGDRRVPLEEFNTNIASVTVNKLISNPGEVERKKGIFANLIIFGPGPVLNENETIDIGIQNHFASREGFGGIMQMKFCPEYVSVFNNVQENKGASIFNRRGYFSDPALILMHELIHVLHGLYGIKVDDLPIVPNEKKFFMQSTDAIQAEELYTFGGQDPSIITPSTDKSIYDKVLQNFRGIVDRLNKVLVCISDPNININIYKNKFKDKYKFVEDSEGKYSIDVESFDKLYKSLMFGFTETNIAENYKIKTRASYFSDSLPPVKIKNLLDNEIYTIEEGFNISDKDMEKEYRGQNKAINKQAYEEISKEHLAVYKIQMCKSVK", "chain 2": "APGICIDVDNEDLFFIADKNSFSDDLSKNERIEYNTQSNYIENDFPINELILDTDLISKIELPSENTESLTDFNVDVPVYEKQPAIKKIFTDENTIFQYLYSQTFPLDIRDISLTSSFDDALLFSNKVYSFFSMDYIKTANKVVEAGLFAGWVKQIVNDFVIEANKSNTMDKIADISLIVPYIGLALNVGNETAKGNFENAFEIAGASILLEFIPELLIPVVGAFLLESYIDNKNKIIKTIDNALTKRNEKWSDMYGLIVAQWLSTVNTQFYTIKEGMYKALNYQAQALEEIIKYRYNIYSEKEKSNINIDFNDINSKLNEGINQAIDNINNFINGCSVSYLMKKMIPLAVEKLLDFDNTLKKNLLNYIDENKLYLIGSAEYEKSKVNKYLKTIMPFDLSIYTNDTILIEMFNKYNSEILNNIILNLRYKDNNLIDLSGYGAKVEVYDGVELNDKNQFKLTSSANSKIRVTQNQNIIFNSVFLDFSVSFWIRIPKYKNDGIQNYIHNEYTIINCMKNNSGWKISIRGNRIIWTLIDINGKTKSVFFEYNIREDISEYINRWFFVTITNNLNNAKIYINGKLESNTDIKDIREVIANGEIIFKLDGDIDRTQFIWMKYFSIFNTELSQSNIEERYKIQSYSEYLKDFWGNPLMYNKEYYMFNAGNKNSYIKLKKDSPVGEILTRSKYNQNSKYINYRDLYIGEKFIIRRKSNSQSINDDIVRKEDYIYLDFFNLNQEWRVYTYKYFKKEEEKLFLAPISDSDEFYNTIQIKEYDEQPTYSCQLLFKKDEESTDEIGLIGIHRFYESGIVFEEYKDYFCISKWYLKEVKRKPYNLKLGCNWQFIPKDEGWTE"}}, "biological_target": "T1, Buforin I", "T1 chain": "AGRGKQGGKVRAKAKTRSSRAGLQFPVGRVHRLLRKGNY", "data": [{"protein": "B1", "values": [{"measurement": "substrate cleavage in the endopeptidase assay", "result": "B-I is not a substrate for BttxB"}]}]}
